Reference: article PMC5567289, “Characterization and structural determination of a new anti-MET function-blocking antibody with binding epitope distinct from the ligand binding domain” (Scientific Reports, 2017)

Assays:
Details in all cases: both partners purified
MET567 = target: T1, MET567 (Homo sapiens, UniProt P08581); experiment: SEC; 6 µM Fab and 4 µM MET (3:2 molar ratio) co-incubated 140 minutes at room temperature in 25 mM Tris pH 7.4, 150 mM NaCl; Superdex 200 10/300
T1 construct: MET receptor (HGF/SF receptor), recombinant truncation of the ectodomain with the SEMA and CR domains and no Ig domain; The ectodomain is cut by furin into an alpha and a beta chain; written here as one chain; also called soluble fragment of the MET ectodomain comprising the SEMA and cysteine-rich (CR) domain

MET = target: T2, MET (Homo sapiens, UniProt P08581); experiment: SPR; Biacore; mean of three experiments; 107_A07 Fab purified sequentially on KappaSelect and GammaBind Plus; MET construct and who was immobilised not stated
T2 construct: MET receptor; Further methods are said to stand in the Supplementary Information file

MET928 [1] = target: T3, MET928 (UniProt P08581); experiment: SPR; CM5 chip coated with MET928; 7A2 scFv (134 nM, 268 nM), NK1 (238 nM, 476 nM) or a mixture (134 nM 7A2 scFv, 238 nM NK1); 60 s injections
T3 construct: MET receptor (HGF/SF receptor), recombinant ectodomain with the SEMA, CR and Ig1-4 domains; The ectodomain is cut by furin into an alpha and a beta chain; written here as one chain; also called MET extracellular domain (MET928); His-tagged MET928; source: recombinant

MET741 = target: T4, MET741 (Homo sapiens, UniProt P08581); experiment: SEC; 6 µM Fab and 4 µM MET (3:2 molar ratio) co-incubated 140 minutes at room temperature in 25 mM Tris pH 7.4, 150 mM NaCl; Superdex 200 10/300
T4 construct: MET receptor (HGF/SF receptor), recombinant truncation of the ectodomain with the SEMA, CR and Ig1-2 domains; The ectodomain is cut by furin into an alpha and a beta chain; written here as one chain; also called soluble MET741; his-tagged MET741; source: CHO Lec3.2.8.1 cells, purified (NiNTA, cation exchange MonoS)

MET928 [2] = target: T3, MET928; experiment: as above

T1 sequence (P08581 39-564): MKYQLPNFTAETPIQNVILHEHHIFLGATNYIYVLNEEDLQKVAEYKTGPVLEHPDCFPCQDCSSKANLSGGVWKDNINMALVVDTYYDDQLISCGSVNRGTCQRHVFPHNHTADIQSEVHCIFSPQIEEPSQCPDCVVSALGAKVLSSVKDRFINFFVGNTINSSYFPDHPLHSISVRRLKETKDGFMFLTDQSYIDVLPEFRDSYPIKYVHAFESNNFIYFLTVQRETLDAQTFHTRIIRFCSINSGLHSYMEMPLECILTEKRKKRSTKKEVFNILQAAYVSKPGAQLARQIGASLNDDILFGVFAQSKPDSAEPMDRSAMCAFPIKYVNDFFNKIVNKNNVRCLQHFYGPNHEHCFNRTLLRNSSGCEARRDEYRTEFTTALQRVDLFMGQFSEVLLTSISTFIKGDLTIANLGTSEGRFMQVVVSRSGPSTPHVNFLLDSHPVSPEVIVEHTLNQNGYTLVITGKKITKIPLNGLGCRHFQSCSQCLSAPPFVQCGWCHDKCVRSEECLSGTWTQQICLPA
T3 sequence (P08581 25-932): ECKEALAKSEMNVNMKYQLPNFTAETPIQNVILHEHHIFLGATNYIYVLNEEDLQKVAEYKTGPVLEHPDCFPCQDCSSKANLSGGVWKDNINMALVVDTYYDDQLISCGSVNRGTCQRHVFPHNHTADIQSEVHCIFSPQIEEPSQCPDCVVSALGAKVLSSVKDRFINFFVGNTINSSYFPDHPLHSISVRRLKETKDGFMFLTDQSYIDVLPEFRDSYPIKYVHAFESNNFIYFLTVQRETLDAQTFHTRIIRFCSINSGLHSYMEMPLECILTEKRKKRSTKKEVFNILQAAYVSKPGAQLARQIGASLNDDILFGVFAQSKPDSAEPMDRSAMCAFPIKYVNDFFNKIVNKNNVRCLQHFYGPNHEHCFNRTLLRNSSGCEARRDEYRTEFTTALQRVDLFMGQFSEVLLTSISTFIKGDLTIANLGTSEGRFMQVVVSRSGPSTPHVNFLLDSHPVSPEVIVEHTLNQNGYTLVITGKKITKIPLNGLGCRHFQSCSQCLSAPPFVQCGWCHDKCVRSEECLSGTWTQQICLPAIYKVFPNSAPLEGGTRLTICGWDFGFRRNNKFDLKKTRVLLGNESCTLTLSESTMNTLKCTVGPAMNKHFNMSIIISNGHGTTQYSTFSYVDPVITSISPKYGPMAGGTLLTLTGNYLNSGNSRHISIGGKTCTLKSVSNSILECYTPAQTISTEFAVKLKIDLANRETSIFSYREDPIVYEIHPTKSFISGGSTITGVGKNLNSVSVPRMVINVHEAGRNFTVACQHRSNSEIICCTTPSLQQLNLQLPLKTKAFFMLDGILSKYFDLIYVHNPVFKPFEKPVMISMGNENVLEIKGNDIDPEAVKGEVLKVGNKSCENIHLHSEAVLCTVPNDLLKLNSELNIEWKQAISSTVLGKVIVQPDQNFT
T4 sequence (P08581 25-741): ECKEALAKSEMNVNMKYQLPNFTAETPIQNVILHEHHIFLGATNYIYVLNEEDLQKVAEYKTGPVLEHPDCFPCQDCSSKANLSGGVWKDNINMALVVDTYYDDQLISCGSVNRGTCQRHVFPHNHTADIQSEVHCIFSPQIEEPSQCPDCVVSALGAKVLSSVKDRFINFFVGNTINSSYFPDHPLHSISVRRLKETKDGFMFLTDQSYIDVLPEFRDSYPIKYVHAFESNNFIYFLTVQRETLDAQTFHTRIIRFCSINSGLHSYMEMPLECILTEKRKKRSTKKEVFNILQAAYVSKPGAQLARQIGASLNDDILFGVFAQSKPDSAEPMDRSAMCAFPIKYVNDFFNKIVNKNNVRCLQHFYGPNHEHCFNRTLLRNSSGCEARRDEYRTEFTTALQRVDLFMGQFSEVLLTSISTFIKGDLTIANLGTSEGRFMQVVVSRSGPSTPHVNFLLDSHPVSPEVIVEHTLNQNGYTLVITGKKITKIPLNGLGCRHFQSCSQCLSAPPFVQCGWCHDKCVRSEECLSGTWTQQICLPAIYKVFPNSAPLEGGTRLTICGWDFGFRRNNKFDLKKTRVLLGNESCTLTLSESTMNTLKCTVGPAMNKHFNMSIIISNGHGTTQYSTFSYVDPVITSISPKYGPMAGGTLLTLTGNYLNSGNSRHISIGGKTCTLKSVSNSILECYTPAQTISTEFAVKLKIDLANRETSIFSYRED
T2 sequence (P08581 25-1390): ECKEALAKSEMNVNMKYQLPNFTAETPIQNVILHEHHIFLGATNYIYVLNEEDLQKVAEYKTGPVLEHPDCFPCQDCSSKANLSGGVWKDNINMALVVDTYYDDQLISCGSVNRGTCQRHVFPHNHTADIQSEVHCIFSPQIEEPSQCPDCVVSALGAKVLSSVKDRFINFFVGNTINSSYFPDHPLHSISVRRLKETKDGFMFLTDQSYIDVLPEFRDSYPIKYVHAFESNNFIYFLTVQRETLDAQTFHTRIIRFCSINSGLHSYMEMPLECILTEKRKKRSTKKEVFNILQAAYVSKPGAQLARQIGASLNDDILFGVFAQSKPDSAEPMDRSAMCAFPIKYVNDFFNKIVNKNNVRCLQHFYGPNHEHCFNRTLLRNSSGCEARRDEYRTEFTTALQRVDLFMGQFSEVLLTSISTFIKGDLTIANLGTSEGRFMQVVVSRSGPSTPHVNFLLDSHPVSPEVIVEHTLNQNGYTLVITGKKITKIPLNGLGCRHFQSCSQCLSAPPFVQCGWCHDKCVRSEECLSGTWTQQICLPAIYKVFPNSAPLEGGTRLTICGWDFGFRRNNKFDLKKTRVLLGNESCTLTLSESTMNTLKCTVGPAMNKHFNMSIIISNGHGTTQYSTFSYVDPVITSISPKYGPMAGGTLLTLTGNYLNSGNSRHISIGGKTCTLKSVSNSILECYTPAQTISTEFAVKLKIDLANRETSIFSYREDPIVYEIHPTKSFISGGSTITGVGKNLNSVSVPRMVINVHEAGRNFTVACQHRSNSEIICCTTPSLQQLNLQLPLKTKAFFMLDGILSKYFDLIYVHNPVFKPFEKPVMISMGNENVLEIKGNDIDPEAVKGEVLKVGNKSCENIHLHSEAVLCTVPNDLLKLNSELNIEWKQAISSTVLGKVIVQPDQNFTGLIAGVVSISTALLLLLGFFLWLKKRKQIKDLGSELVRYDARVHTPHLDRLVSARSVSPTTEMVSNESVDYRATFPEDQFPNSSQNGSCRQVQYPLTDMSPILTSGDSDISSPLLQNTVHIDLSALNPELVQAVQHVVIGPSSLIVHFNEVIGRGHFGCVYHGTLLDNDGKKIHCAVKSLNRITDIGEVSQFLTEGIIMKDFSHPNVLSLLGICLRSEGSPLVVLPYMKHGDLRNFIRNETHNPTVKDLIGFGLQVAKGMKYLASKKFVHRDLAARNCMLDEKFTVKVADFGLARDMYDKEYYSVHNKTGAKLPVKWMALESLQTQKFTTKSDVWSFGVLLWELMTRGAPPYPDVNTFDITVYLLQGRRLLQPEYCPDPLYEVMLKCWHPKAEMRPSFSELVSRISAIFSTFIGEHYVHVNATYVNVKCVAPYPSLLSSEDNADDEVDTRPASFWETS

Binder | binding result (MET567) | Kd (MET) [nM] | binding result (MET928 [1]) | binding result (MET741) | binding result (MET928 [2])
107_A07 Fab (Fab, V domains shown, Fab heavy chain is chain H of the deposited structure PDB 5LSP; Fab light chain is chain L of the deposited structure PDB 5LSP) VH: QMQLVQSGAEVKKPGAPVKVSCKVSGYTFTDYYMHWVQQAPGKGLEWMGLVDPEDGETIYAEKFQGRVTITADTSTDTAYMELSSLRSEDTAVYYCATDATTPYWGMMWWGQGTLVTVSS VL: DIQMIQSPSSLSASVGDRVTITCQASQDISNYLNWYQQKPGRAPKVLIYDASNLETGVPSRFSGSGSGTEFTLTISNLRPDDFATYYCQQGDSFPLTFGGGTKVEIK | no binding (tested: 6 µM Fab, 4 µM MET567) | 3.2 |  |  | 
7A2 scFv (scFv, V domains shown, VH of 7A2: as the VH of m1 (PDB 5LSP chain H) except in CDR3, where 7A2 has Y105 instead of W105; VL of 7A2: as the VL of m1 (PDB 5LSP chain L); also called clone 7A2; source: Pichia pastoris, purified (Ni-NTA, gel filtration)) VH: QMQLVQSGAEVKKPGAPVKVSCKVSGYTFTDYYMHWVQQAPGKGLEWMGLVDPEDGETIYAEKFQGRVTITADTSTDTAYMELSSLRSEDTAVYYCATDATTPYYGMDVWGQGTLVTVSS VL: DIQMTQSPSSLSASVGDRVTITCQASQDISNYLNWYQQKPGRAPKVLIYDASNLETGVPSRFSGSGSGTEFTLTISNLRPDDFATYYCQQGDSFPLTFGGGTKVEIK |  |  | binds |  | 
7A2 Fab (Fab, V domains shown, as the light chain of m1 (PDB 5LSP chain L): the matured clones came from VH CDR3 mutagenesis and VL mutants were not identified; also called Fab 7A2; Fab-formatted 7A2) VH: QMQLVQSGAEVKKPGAPVKVSCKVSGYTFTDYYMHWVQQAPGKGLEWMGLVDPEDGETIYAEKFQGRVTITADTSTDTAYMELSSLRSEDTAVYYCATDATTPYYGMDVWGQGTLVTVSS VL: DIQMTQSPSSLSASVGDRVTITCQASQDISNYLNWYQQKPGRAPKVLIYDASNLETGVPSRFSGSGSGTEFTLTISNLRPDDFATYYCQQGDSFPLTFGGGTKVEIK | no binding (tested: 6 µM Fab, 4 µM MET567) |  |  | binds | binds
